Test results taken from patent US20230250160A1 (HOBER BIOTECH, published 2023).
Where two headings read alike, the source gives them in different places.

T1: myeloid-derived growth factor (human (produced in the Human Secretome …, UniProt Q969H8 32-173, limits assumed))
T1 construct: also called MYDGF; bMYDGF
T1 sequence (looked up): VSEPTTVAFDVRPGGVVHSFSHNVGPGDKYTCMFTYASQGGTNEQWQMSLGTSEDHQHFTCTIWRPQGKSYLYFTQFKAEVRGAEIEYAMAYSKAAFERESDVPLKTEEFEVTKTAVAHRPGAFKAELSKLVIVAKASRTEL


Assays:
Her2 = molecular target: T2, Her2 (UniProt P04626 23-652, limits assumed); test: SPR (Biacore), ADAPT injected alone at 31.25-500 nM over immobilised Her2 (irrelevant target)
T2 construct: also called irrelevant target Her2
Method: (§1) Sensor-based binding analysis was performed using a Biacore T200 system (GE Healthcare, Stockholm, Sweden). All analyses were conducted using CM-5 sensor chips coated with the target antigen, another irrelevant antigen and HSA. One surface was left as reference. Binding analysis was performed in PBS-T at 25° C. The ADAPT variants were diluted in PBS-T to 500 nM, 250 nM, 125 nM, 62.5 nM and 31.25 nM. The samples were injected at a flow rate of 30 ul/min for 120 s followed by injection of PBS-T for 240 s to monitor the dissociation. Surfaces were regenerated with 10 mM HCl. Kinetic parameters were determined using the Biacore Insight Evaluation software, assuming a 1:1 binding.
Variants with sufficient alpha helical structure as well as monomeric elution profiles on the SEC column were further analyzed for binding towards their target protein as well as to HSA. The binding towards the target antigen used in the selection was measured by a multi-cycle analysis using SPR, showing that several binders had affinities in the μM-pM range. […] After target binding had been established, the variants were also evaluated for their ability to simultaneously bind to HSA. This was done either through an SPR capture assay or an experiment where the ADAPT was pre-incubated with saturating conditions of HSA before the binding towards the target was analyzed. […]

[1] = molecular target: T3, Human recombinant Insulin (human, UniProt P01308 25-54; P01308 90-110, limits assumed); test: SPR Biacore T200, target on CM5 chip, ADAPT injected, 1:1 fit
T3 construct: also called bInsulin
Method: as §1
(§2) Variants with sufficient alpha helical structure as well as monomeric elution profiles on the SEC column were further analyzed for binding towards their target protein as well as to HSA. The binding towards the target antigen used in the selection was measured by a multi-cycle analysis using SPR, showing that several binders had affinities in the μM-pM range. […] After target binding had been established, the variants were also evaluated for their ability to simultaneously bind to HSA. This was done either through an SPR capture assay or an experiment where the ADAPT was pre-incubated with saturating conditions of HSA before the binding towards the target was analyzed. […] In total, thirteen of the characterized binders from the selections towards TNFα, PSA, ANG, MYDGF and Insulin could bind both HSA and its target antigen simultaneously. FIG. 5 contains sensorgrams for the thirteen variants in the capture assay.

[2] = molecular target: T3, Human recombinant Insulin; test: as above; remark: listed apart in the source
Method: as §1

Human Serum Albumin [3] = molecular target: T4, Human Serum Albumin (human, UniProt P02768 25-609); test: SPR Biacore T200, HSA on CM5 chip, ADAPT injected, 1:1 fit
T4 construct: also called HSA
Method: as §1

Human Serum Albumin [4] = molecular target: T4, Human Serum Albumin; test: as above; remark: listed apart in the source
Method: as §1

[5] = molecular target: T1, myeloid-derived growth factor; test: SPR Biacore T200, target on CM5 chip, ADAPT injected, 1:1 fit
Method: as §1, §2

[6] = molecular target: T1, myeloid-derived growth factor; test: as above; remark: listed apart in the source
Method: as §1

T3 sequence (P01308 25-54 limits assumed, chain 1 of 2): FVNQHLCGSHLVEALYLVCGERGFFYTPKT
T3 sequence (P01308 90-110 limits assumed, chain 2 of 2): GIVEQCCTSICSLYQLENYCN
T4 sequence (P02768 25-609 limits assumed): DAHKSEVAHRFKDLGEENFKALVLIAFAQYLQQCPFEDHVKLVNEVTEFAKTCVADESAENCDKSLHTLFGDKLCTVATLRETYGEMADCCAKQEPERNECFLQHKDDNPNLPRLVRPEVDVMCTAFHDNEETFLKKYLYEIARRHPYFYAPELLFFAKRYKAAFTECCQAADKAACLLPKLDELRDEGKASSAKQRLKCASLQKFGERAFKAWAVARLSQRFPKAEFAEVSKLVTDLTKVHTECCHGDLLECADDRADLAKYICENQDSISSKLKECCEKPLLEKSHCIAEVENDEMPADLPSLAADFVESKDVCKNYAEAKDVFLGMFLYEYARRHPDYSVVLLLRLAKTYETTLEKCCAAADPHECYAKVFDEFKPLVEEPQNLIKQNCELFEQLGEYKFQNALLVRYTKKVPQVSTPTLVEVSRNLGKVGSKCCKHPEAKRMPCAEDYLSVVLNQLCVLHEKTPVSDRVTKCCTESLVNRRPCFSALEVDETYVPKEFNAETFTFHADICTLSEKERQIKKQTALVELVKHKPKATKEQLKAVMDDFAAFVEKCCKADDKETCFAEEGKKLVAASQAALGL

| binding result (Her2) | Kd [1] | Kd [2] | koff [2] | kon [2] | Kd (Human Serum Albumin [3]) | koff (Human Serum Albumin [3]) | kon (Human Serum Albumin [3]) | Kd (Human Serum Albumin [4]) | Kd [5] | Kd [6] | koff [6] | kon [6] | Binder |
| --- | --- | --- | --- | --- | --- | --- | --- | --- | --- | --- | --- | --- | --- |
| no binding (tested: 500 nM) | 670 nM | 670 nM | 0.12 s⁻¹ | 180000 M⁻¹ s⁻¹ | 1.5 nM | 0.00093 s⁻¹ | 640000 M⁻¹ s⁻¹ | 1.5 nM |  |  |  |  | LAIAKAYAQYELSFYGVSDFYRELIVKAKTVEGVEALKLHILAALP (designed binder, also called INS_02) [ADAPT variant Insulin_02] |
|  |  |  |  |  | 4.7 nM | 0.00014 s⁻¹ | 30000 M⁻¹ s⁻¹ | 4.7 nM | 230 nM | 230 nM | 0.082 s⁻¹ | 350000 M⁻¹ s⁻¹ | LWWAKVWAVAELQKYGVSDFYFKLIDKAKTVEGVEALKLHILAALP (designed binder) [ADAPT variant MYDGF_07] |
|  |  |  |  |  | 12 nM | 0.00028 s⁻¹ | 23000 M⁻¹ s⁻¹ | 12 nM | 180 nM | 180 nM | 0.18 s⁻¹ | 1e+06 M⁻¹ s⁻¹ | LWWAKVSAIKELQAYGVSDFYYMLITKAKTVEGVEALKLHILAALP (designed binder) [ADAPT variant MYDGF_08] |
